Experiment [1] in a line: Competitive binding of [H^3]-morphine against naltrexone.
Experiment [2] can be described thus: Competitive binding of [H^3]-morphine against meperidine. Particulars: read-out: Kd, meperidine; from IC50 against 2 nM [H^3]-morphine.
Experiment [3] can be described thus: Competitive binding of [H^3]-morphine against naloxone.
Experiment [4] is described as follows: Competitive binding of [H^3]-morphine against oxycodone. Particulars: read-out: Kd, oxycodone; from IC50 against 2 nM [H^3]-morphine.
For experiment [5] the following is noted: read-out: Kd, morphine; 2 nM [H^3]-morphine, room temperature, 60 minutes, pH 7.4.
Protocol: The binding constant of the antibody with [H^3]-morphine were tested using liquid scintillation counting. Briefly, 2 nM [H^3]-morphine was incubated with different concentration of antibody at room temperature for 60 minutes. The total volume of mixture was 100 and pH was 7.4.
The conditions of experiment [6]: collected from the references cited; read-out: Activities (Kd), Morphine; cited from earlier work.
The conditions of experiment [7]: cited from earlier work.
The conditions of experiment [8]: mice; cited from earlier work.
[9] abbreviates: 10 μM competing drug, 60 nM antibody, 2 nM [H^3]-morphine.
[10] abbreviates: collected from the references cited, read-out: Activities (Kd), 6-MAM.

Read-outs that look alike come from different tables or passages of the source.

B1: UK6Mab02: fully humanized antibody (H1L3) designed from Ab13, with human IgG1 heavy and kappa light constant regions (antibody, V domains shown)
VH: EVQLVQSGAEVKKPGASVKISCKASGYTFTSYWIEWVKQAPGKGLEWIGEINPSGGSTIYAEKFQGRATFTADTSTSTAYMELSSLRSEDTAVYYCARWVLDYYGMDYWGQGTSLTVSS
VL: QAVVTQEPSLTVSPGGTVTLTCGSSTGAVTSGNYANWVQQKPGQAFRGLIGGTNTRSSGVPDRFSGSLLGGKAALTISGAQPEDEAEYYCALWYSNKLVFGGGTKLTVL
modifications: H1 (UK6Mab02) Heavy Chain; L3 (UK6Mab02) - Light chain
Regarding B1, the “Binding with naltrexone in initial screening” value in experiment [1] (setting [9]) is “did not show significant binding affinities”. Further, the Kd in experiment [1] (read-out: Kd, naltrexone, from competition with 2 nM [H^3]-morphine) was above 10000 nM; in experiment [2] it was 15700 nM; in experiment [3] (read-out: Kd, naloxone, from competition with 2 nM [H^3]-morphine) it was above 10000 nM; in experiment [4], 6910 nM; in experiment [5], 127 nM. Besides, in experiment [3] (setting [9]), the “Binding with naloxone in initial screening” value was “did not show significant binding affinities”.

B2: Ab19 (antibody, V domains shown)
VH: EVQLVESGGGLVQPGRSLRLSCAASGFSFGDYARIMVRQAPGKGLEWVSGISWDSYTTGYADSVKGRFTVSRDNAICNSLYLQMNSLRPEDTAVYYCAKAPSPRRVIIEYFDSDYWGGTSLTVSS
VL: QSVLTQPPSVSGAPGQRVTISCTGSSSNIGAGYDVHWYQQLPGTAPKLLIYGNSNRPSGVPDRFSGSKSGTSASLAITGLQAEDEADYYCQSYDSSLRGVVFGGGTKLTVL
modifications: Ab19 - Heavy chain; Ab19 - Light chain
As to B2, the Kd is at least 10000 nM in experiment [6] and 160 nM in experiment [7] (setting [10]).

B3: Ab21: known anti-6-MAM antibody 6-MAM-103; heavy chain SEQ ID NO: 33, light chain SEQ ID NO: 59 (antibody, V domains shown)
VH: EVQLVESGGGLVQPGRSLRLSCAASGFSFGDYAIHMVRQAPGKGLEWVSGISWDSYTTGYADSVKGRFTVSRDNAICNSLYLQMNSLRPEDTAVYYCAKAPSPRRVIIEYFDSDYWGQGTSLTVSS
VL: QSALTQPASVSGAPGQRVTISCTGSSSNIGAGYDVHWYQQLPGTAPKLLIYGNSNRPSGVPDRFSGSKSGTSASLAITGLQAEDEADYYCQSYDSSLSGVVFGGGTKLTVL
modifications: Ab21 - Heavy chain; Ab21 - Light chain
In the case of B3, the Kd in experiment [6] is above 10000 nM; in experiment [7] (setting [10]), 100 nM.

B4: Ab20: known anti-6-MAM antibody 6-MAM-102; heavy chain SEQ ID NO: 32, light chain SEQ ID NO: 58 (antibody, V domains shown)
VH: EVQLVESGGGLVQPGRSLRLSCAASGFSFGDYAIHMVRQAPGKGLEWVSGISWDSYTTGYADSVKGRFTVSRDNAKNSLYLQMNSLRPEDTAVYYCAKAPSPRRVHEYFDSDYWGQGTSLTVSS
VL: QSALTQPASVSGAPGQRVTMSCTGSSSNIGAGYDVHWYQQLPGTAPKLLIFGNTNRPSGVPDRFSASKSGTSASLAITGLQAEDEADYYCQSYDNSLSGVVFGGGTKLTVL
modifications: Ab20 - Heavy chain; Ab20 - Light chain
On to B4, for which the Kd in experiment [6] was above 10000 nM; in experiment [7] (setting [10]) it was 170 nM.

B5: Ab24: known anti-6-MAM antibody 6-MAM-120; heavy chain SEQ ID NO: 36, light chain SEQ ID NO: 62 (antibody, V domains shown)
VH: EVQLVESGGGLVQPGRSLRLSCAASGFTFGDYAIHMVRQAPGKGLEWVAGISWDSYTTGYADSVKGRFTVSRDNAKNSLYLQMNSLRPEDTAVYYCAICAPSPRRVIIEYFQYDYWGQGTSLTVSS
VL: QSALTQPASVSGAPGQRVTISCTGSSSNIGAGYDVHWYQQLPGTAPKLLIYGNSNRPSGVPDRFSGSKSGTSASLAITGLQAEDEADYYCQSYDSSLSGVVFGGGTKLTVL
modifications: Ab24 - Heavy chain; Ab24 - Light chain
As to B5, the figures for the Kd in experiment [6] and in experiment [7] (setting [10]) were above 10000 nM and 250 nM, respectively.

B6: Ab17: known 6-MAM-specific mAb 6-MAM-214; heavy chain SEQ ID NO: 29, light chain SEQ ID NO: 55 (antibody, V domains shown)
VH: EVQLVESGGGLVQPGRSLRLSCAASGFSFGDYAIHMVRQAPGKGLEWVSGISWDSYTTGYADSVKGRFTVSRDNAKNSLYLQMNSLRPEDTAVYYCAKAPSPRRVIIEYFDSDYWGQGTSLTVSS
VL: QSALTQPASVSGAPGQTVSISCTGWSSNIGAGYDVHWYQQLPGTAPKLLISHNTNRPSGVPDRFSGSKSGTSASLAITGLQAEDEADYYCQSYDSTLGVVVEGGGTICLTVL
modifications: Ab17 - Heavy chain; Ab17 - Light chain
In the case of B6, the Kd is above 10000 nM in experiment [6]; 300 nM in experiment [7] (setting [10]); 300 nM in experiment [7] (literature value, read-out: affinity for 6-MAM). Also, the “Effect on acute heroin effects” value in experiment [8] is on record as “able to reduce the acute heroin effects in mice”.

B7: Ab22: known anti-6-MAM antibody 6-MAM-108; heavy chain SEQ ID NO: 34, light chain SEQ ID NO: 60 (antibody, V domains shown)
VH: EVQLVESGGGLVQPGRSLRLSCAASGFSFGDYAIHMVRQAPGKGLEWVSGISWDSYTTGYADSVKGRFTVSRDNAKNSLYLQMNSLRPEDTAVYYCAKAPSPRRVIIEYFDSDYWGQGTSLTVSS
VL: QSVLTQPPSVSGAPGQRVTISCTGSSSNIGAGYDVHWYQQLPGTAPKLLWGNSNRPSGVPDRFSGSKSGTSASLAITGLQAEDEADYYCQSYDSSLSGVVFGGGTKLTVL
modifications: Ab22 - Heavy chain; Ab22 - Light chain
As to B7, the Kd in experiment [6] was above 10000 nM; in experiment [7] (setting [10]), 170 nM.

The values are drawn from patent US12065507B2 (priority 2020, dated 2024).
